In the supplement of paper PMC10065799, “High-throughput profiling of sequence recognition by tyrosine kinases and SH2 domains using bacterial peptide display” (eLife, 2023):

These sequences were tested on AncSZ (assay: phosphorylation enrichment, bacterial display (enrichment ratio); higher = better substrate or ligand; peptides without Tyr show the background).
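Also: 11-residue human phosphosite peptides and single-mutation variants displayed on the E. coli surface, counted by deep sequencing, each peptide's frequency after selection divided by its frequency in the unselected input library; frequency after pTyr selection over input frequency; kinase dosed for 20-30% of maximal phosphorylation in three min.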

Sequence	phosphorylation enrichment
AEVIWYKGDEV	1.13
EILLSDLRTGY [TGM1_Y365_Y365D]	0.673
QDEHGYISLCF [HSPB1_Y133_R136L]	2.22
RQGKDYIGAIP [KDR_Y951_V952I]	0.804
CGTPDYIAPEI [PRKCG_Y521]	1.99
LVTCSYLLGNS [LMNA_Y646_R644C]	2.16
QDTSRYTVCNL [BIRC3_Y245_S248C]	0.745
KELANYFKLHH [AK7_Y390_YF]	0.644
KDHPDYKYQPR [SOX10_Y171]	0.668
WAMLAYNRSKL [WWOX_Y293]	1.25
EKLIQYCQSKS [AKR1B1_Y199_G204S]	0.679
DMDATYRPMFS [JUP_Y701_YF]	0.831
WHYTFYNELRV [ACTC1_Y93_H90Y]	1.39
TQTPPYVKKHR [LARP1B_Y457_P462R]	0.774
NPQKSYLIRLF [WAS_Y83_F84L_YF]	0.768
KRGVSYILKLA [SERPINB1_Y84_A82V]	1.4
CPPKVYELMRA [ABL2_Y515]	0.662

Sequence	phosphorylation enrichment
FLTQHYDAKPQ [ANG_Y38]	0.732
EDKFMYFEFPQ [PTEN_Y240]	1.7
RVNSAYQEKVS [ACAN_Y100_D102E]	0.407
FTRNFYVRAVL [CYBA_Y88_YF]	1.36
MSLRSYGSREG [APC_Y96]	0.723
VDTFWYKFLKR [EPM2A_Y86]	1.21
FQLENCCNGGG [INS_Y108_Y108C_YF]	0.896
QSVEPYTKQQL [STAT3_Y640]	0.715
EYYENYIEELK [PARP4_Y218_F215Y]	2.04
SAASGYSDVTD [DTX2_Y425_T421A]	0.866
LRWREYQRQDY [PRKRIP1_Y90_R87W]	1.12
KILGRYFETGS [PAX2_Y72_YF]	0.575
FPLELYERVRI [PRKCG_Y312_M317I_YF]	1.34
MTFVFYRENLR [NLRP14_Y443_YF]	1.42
FQKNVYSEELR [LMNA_Y211_I210V]	0.674
IQKKYYRAILE [CHD7_Y1218]	0.649

The sequences below were run against EPHB1 (UniProt P54762) in the same assay as above.
Sequence of EPHB1 (P54762 whole entry, looked up): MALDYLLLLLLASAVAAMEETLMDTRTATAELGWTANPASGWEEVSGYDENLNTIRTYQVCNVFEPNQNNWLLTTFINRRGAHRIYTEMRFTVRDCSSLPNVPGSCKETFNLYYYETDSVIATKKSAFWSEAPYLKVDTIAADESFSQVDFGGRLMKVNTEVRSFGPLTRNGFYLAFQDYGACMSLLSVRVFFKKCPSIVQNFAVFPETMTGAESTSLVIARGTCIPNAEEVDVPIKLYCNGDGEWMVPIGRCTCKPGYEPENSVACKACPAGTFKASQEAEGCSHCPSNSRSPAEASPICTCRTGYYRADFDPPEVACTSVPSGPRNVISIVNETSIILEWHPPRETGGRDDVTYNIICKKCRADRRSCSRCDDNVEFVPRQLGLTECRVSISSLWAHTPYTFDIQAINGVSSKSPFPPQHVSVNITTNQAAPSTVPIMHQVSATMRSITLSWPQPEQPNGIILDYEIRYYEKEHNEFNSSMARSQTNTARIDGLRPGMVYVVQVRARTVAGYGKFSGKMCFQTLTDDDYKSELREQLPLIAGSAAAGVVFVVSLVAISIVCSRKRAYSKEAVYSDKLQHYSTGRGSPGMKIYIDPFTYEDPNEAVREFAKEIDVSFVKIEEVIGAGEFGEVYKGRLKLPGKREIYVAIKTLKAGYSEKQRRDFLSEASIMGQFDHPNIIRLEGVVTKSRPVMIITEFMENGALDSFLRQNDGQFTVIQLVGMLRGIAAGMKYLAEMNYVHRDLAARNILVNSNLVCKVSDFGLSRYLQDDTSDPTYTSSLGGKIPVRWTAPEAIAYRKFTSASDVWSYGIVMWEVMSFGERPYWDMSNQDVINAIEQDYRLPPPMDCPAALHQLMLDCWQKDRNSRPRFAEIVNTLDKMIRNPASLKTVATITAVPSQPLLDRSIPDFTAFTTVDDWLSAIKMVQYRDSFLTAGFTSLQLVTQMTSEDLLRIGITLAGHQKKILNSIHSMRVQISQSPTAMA

Sequence	phosphorylation enrichment
AEVIWYKGDEV	0.707
EILLSDLRTGY [TGM1_Y365_Y365D]	0.367
QDEHGYISLCF [HSPB1_Y133_R136L]	1.56
RQGKDYIGAIP [KDR_Y951_V952I]	0.399
CGTPDYIAPEI [PRKCG_Y521]	0.715
LVTCSYLLGNS [LMNA_Y646_R644C]	1.14
QDTSRYTVCNL [BIRC3_Y245_S248C]	0.528
KELANYFKLHH [AK7_Y390_YF]	0.727
KDHPDYKYQPR [SOX10_Y171]	0.362
WAMLAYNRSKL [WWOX_Y293]	0.453
EKLIQYCQSKS [AKR1B1_Y199_G204S]	0.584
DMDATYRPMFS [JUP_Y701_YF]	0.52
WHYTFYNELRV [ACTC1_Y93_H90Y]	1.31
TQTPPYVKKHR [LARP1B_Y457_P462R]	0.575
NPQKSYLIRLF [WAS_Y83_F84L_YF]	0.462
KRGVSYILKLA [SERPINB1_Y84_A82V]	0.504
CPPKVYELMRA [ABL2_Y515]	8.38

Sequence	phosphorylation enrichment
FLTQHYDAKPQ [ANG_Y38]	0.637
EDKFMYFEFPQ [PTEN_Y240]	0.826
RVNSAYQEKVS [ACAN_Y100_D102E]	0.413
FTRNFYVRAVL [CYBA_Y88_YF]	0.831
MSLRSYGSREG [APC_Y96]	0.416
VDTFWYKFLKR [EPM2A_Y86]	0.657
FQLENCCNGGG [INS_Y108_Y108C_YF]	0.509
QSVEPYTKQQL [STAT3_Y640]	0.614
EYYENYIEELK [PARP4_Y218_F215Y]	1.09
SAASGYSDVTD [DTX2_Y425_T421A]	0.646
LRWREYQRQDY [PRKRIP1_Y90_R87W]	0.439
KILGRYFETGS [PAX2_Y72_YF]	0.414
FPLELYERVRI [PRKCG_Y312_M317I_YF]	1.66
MTFVFYRENLR [NLRP14_Y443_YF]	0.585
FQKNVYSEELR [LMNA_Y211_I210V]	0.456
IQKKYYRAILE [CHD7_Y1218]	0.396

What follows are sequences tested against EPHB2 (UniProt P29323) in the same assay as above.
Sequence of EPHB2 (P29323 whole entry, looked up): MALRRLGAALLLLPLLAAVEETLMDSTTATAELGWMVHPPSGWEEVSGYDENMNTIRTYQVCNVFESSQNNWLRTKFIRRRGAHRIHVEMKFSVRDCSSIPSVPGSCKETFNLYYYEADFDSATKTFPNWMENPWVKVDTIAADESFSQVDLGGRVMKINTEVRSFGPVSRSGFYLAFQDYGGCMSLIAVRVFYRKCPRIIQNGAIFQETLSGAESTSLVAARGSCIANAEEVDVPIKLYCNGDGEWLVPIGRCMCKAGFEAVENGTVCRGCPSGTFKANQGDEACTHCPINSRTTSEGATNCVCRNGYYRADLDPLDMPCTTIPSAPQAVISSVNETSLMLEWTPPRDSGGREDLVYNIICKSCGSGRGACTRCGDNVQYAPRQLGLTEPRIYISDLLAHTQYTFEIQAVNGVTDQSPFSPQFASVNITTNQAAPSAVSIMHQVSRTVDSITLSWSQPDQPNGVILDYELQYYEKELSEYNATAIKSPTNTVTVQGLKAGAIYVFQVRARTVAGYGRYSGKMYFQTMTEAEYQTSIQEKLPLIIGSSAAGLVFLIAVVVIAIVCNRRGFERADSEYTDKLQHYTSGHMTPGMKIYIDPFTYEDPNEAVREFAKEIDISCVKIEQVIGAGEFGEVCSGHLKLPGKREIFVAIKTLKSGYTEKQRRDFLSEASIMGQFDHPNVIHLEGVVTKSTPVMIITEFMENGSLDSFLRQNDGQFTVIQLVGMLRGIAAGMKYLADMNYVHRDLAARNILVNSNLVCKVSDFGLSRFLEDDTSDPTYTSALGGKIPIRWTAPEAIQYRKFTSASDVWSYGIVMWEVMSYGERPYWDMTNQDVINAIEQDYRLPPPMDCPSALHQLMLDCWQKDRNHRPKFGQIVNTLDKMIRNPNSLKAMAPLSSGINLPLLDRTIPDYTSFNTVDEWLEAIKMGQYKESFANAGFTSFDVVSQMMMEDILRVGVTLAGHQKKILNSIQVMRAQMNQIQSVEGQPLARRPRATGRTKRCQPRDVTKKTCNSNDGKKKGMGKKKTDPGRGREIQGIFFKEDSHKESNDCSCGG

Sequence	phosphorylation enrichment
AEVIWYKGDEV	0.572
EILLSDLRTGY [TGM1_Y365_Y365D]	0.455
QDEHGYISLCF [HSPB1_Y133_R136L]	1.22
RQGKDYIGAIP [KDR_Y951_V952I]	0.62
CGTPDYIAPEI [PRKCG_Y521]	0.755
LVTCSYLLGNS [LMNA_Y646_R644C]	1.56
QDTSRYTVCNL [BIRC3_Y245_S248C]	0.439
KELANYFKLHH [AK7_Y390_YF]	0.537
KDHPDYKYQPR [SOX10_Y171]	0.381
WAMLAYNRSKL [WWOX_Y293]	0.417
EKLIQYCQSKS [AKR1B1_Y199_G204S]	0.588
DMDATYRPMFS [JUP_Y701_YF]	0.448
WHYTFYNELRV [ACTC1_Y93_H90Y]	0.678
TQTPPYVKKHR [LARP1B_Y457_P462R]	0.545
NPQKSYLIRLF [WAS_Y83_F84L_YF]	0.484
KRGVSYILKLA [SERPINB1_Y84_A82V]	0.557
CPPKVYELMRA [ABL2_Y515]	2.41

Sequence	phosphorylation enrichment
FLTQHYDAKPQ [ANG_Y38]	0.581
EDKFMYFEFPQ [PTEN_Y240]	0.67
RVNSAYQEKVS [ACAN_Y100_D102E]	0.397
FTRNFYVRAVL [CYBA_Y88_YF]	0.713
MSLRSYGSREG [APC_Y96]	0.42
VDTFWYKFLKR [EPM2A_Y86]	0.629
FQLENCCNGGG [INS_Y108_Y108C_YF]	0.586
QSVEPYTKQQL [STAT3_Y640]	0.695
EYYENYIEELK [PARP4_Y218_F215Y]	0.967
SAASGYSDVTD [DTX2_Y425_T421A]	0.589
LRWREYQRQDY [PRKRIP1_Y90_R87W]	0.761
KILGRYFETGS [PAX2_Y72_YF]	0.467
FPLELYERVRI [PRKCG_Y312_M317I_YF]	1.1
MTFVFYRENLR [NLRP14_Y443_YF]	0.719
FQKNVYSEELR [LMNA_Y211_I210V]	0.48
IQKKYYRAILE [CHD7_Y1218]	0.586

The sequences below were run against FGFR1 (UniProt P11362) in the same assay as above.
Sequence of FGFR1 (P11362 whole entry, looked up): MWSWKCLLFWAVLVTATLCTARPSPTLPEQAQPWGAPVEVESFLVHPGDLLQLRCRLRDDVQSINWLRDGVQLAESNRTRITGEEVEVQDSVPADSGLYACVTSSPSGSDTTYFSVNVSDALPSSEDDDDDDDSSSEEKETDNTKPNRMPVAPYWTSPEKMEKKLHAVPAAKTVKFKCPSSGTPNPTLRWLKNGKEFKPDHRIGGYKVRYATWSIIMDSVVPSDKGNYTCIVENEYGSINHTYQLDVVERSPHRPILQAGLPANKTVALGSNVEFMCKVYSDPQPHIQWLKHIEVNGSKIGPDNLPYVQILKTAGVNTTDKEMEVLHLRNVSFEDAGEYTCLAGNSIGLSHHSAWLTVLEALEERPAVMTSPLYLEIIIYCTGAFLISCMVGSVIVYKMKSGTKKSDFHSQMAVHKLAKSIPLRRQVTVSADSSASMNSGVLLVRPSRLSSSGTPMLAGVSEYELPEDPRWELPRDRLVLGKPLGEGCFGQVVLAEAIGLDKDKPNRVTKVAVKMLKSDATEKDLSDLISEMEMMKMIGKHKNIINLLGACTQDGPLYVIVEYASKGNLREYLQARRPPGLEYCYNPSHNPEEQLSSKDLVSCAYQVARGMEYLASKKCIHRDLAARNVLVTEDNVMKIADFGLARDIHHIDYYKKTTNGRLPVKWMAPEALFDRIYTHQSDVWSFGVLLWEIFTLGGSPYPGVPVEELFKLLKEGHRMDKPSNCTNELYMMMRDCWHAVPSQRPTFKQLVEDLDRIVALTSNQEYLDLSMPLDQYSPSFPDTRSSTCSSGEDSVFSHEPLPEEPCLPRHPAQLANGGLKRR

Sequence	phosphorylation enrichment
AEVIWYKGDEV	0.433
EILLSDLRTGY [TGM1_Y365_Y365D]	0.511
QDEHGYISLCF [HSPB1_Y133_R136L]	1.48
RQGKDYIGAIP [KDR_Y951_V952I]	0.596
CGTPDYIAPEI [PRKCG_Y521]	1.23
LVTCSYLLGNS [LMNA_Y646_R644C]	0.76
QDTSRYTVCNL [BIRC3_Y245_S248C]	0.418
KELANYFKLHH [AK7_Y390_YF]	1.15
KDHPDYKYQPR [SOX10_Y171]	0.492
WAMLAYNRSKL [WWOX_Y293]	0.431
EKLIQYCQSKS [AKR1B1_Y199_G204S]	0.459
DMDATYRPMFS [JUP_Y701_YF]	0.498
WHYTFYNELRV [ACTC1_Y93_H90Y]	0.686
TQTPPYVKKHR [LARP1B_Y457_P462R]	0.683
NPQKSYLIRLF [WAS_Y83_F84L_YF]	0.439
KRGVSYILKLA [SERPINB1_Y84_A82V]	0.534
CPPKVYELMRA [ABL2_Y515]	0.73

Sequence	phosphorylation enrichment
FLTQHYDAKPQ [ANG_Y38]	1.14
EDKFMYFEFPQ [PTEN_Y240]	9.1
RVNSAYQEKVS [ACAN_Y100_D102E]	0.678
FTRNFYVRAVL [CYBA_Y88_YF]	0.635
MSLRSYGSREG [APC_Y96]	0.373
VDTFWYKFLKR [EPM2A_Y86]	0.553
FQLENCCNGGG [INS_Y108_Y108C_YF]	0.442
QSVEPYTKQQL [STAT3_Y640]	0.553
EYYENYIEELK [PARP4_Y218_F215Y]	4.75
SAASGYSDVTD [DTX2_Y425_T421A]	0.633
LRWREYQRQDY [PRKRIP1_Y90_R87W]	0.626
KILGRYFETGS [PAX2_Y72_YF]	0.459
FPLELYERVRI [PRKCG_Y312_M317I_YF]	0.498
MTFVFYRENLR [NLRP14_Y443_YF]	0.562
FQKNVYSEELR [LMNA_Y211_I210V]	0.418
IQKKYYRAILE [CHD7_Y1218]	0.424
